# System: Escherichia coli TOP10
# Assay: shrunken log2 fold change of peptide-encoding DNA abundance (4.5 h post-induction vs induction); higher = less antimicrobial activity (less host growth inhibition)
# Settings: time post-induction: 4.5 h; library: site-saturation at positions 5, 18, 19, 20
# 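Further: peptides expressed intracellularly from a pBAD plasmid library in pooled LB shake-flask culture, induced with 0.3% L-arabinose, DNA abundance read by NGS, three biological replicates, DESeq2 with apeglm shrinkage.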
row,Sequence,shrunken log2 fold change
1,RRIRYRPPRLPRPRPRPNIIPRP,-1.01
2,RRIRSRPPRLPRPRPRPYPQPRP,-0.267
3,RRIRWRPPRLPRPRPRPFWVPRP,0.00637
4,RRIRSRPPRLPRPRPRPTQCPRP,0.23
5,RRIRPRPPRLPRPRPRPHGNPRP,-0.654
6,RRIRCRPPRLPRPRPRPHVKPRP,-0.284
7,RRIRCRPPRLPRPRPRPGTMPRP,0.0719
8,RRIRGRPPRLPRPRPRPDDMPRP,0.00936
9,RRIRTRPPRLPRPRPRPFFKPRP,-0.303
10,RRIRPRPPRLPRPRPRPTSPPRP,-0.0252
11,RRIRSRPPRLPRPRPRPQHHPRP,-0.466
12,RRIRKRPPRLPRPRPRPIMIPRP,-0.0532
13,RRIRMRPPRLPRPRPRPDASPRP,2.43
14,RRIRQRPPRLPRPRPRPGICPRP,0.156
15,RRIRSRPPRLPRPRPRPEACPRP,1.03
16,RRIRIRPPRLPRPRPRPMGEPRP,-0.0442
17,RRIRNRPPRLPRPRPRPDDFPRP,-0.00663
18,RRIRQRPPRLPRPRPRPYHCPRP,-0.0107
19,RRIRQRPPRLPRPRPRPKNPPRP,-0.26
20,RRIRWRPPRLPRPRPRPHEIPRP,0.0984
21,RRIRYRPPRLPRPRPRPGYTPRP,0.0577
22,RRIRERPPRLPRPRPRPHHQPRP,-0.318
23,RRIRDRPPRLPRPRPRPLHSPRP,0.0372
24,RRIRDRPPRLPRPRPRPPRCPRP,0.551
25,RRIRKRPPRLPRPRPRPADTPRP,1.03

row,Sequence,shrunken log2 fold change
1,RRIRTRPPRLPRPRPRPHLDPRP,-0.175
2,RRIRFRPPRLPRPRPRPLFQPRP,-0.446
3,RRIRSRPPRLPRPRPRPTNEPRP,0.308
4,RRIRRRPPRLPRPRPRPFVPPRP,0.127
5,RRIRNRPPRLPRPRPRPVRAPRP,0.545
6,RRIRYRPPRLPRPRPRPAGLPRP,0.125
7,RRIRDRPPRLPRPRPRPFPQPRP,0.0191
8,RRIRYRPPRLPRPRPRPWPPPRP,0.194
9,RRIRLRPPRLPRPRPRPQAPPRP,0.138
10,RRIRQRPPRLPRPRPRPLCIPRP,-0.28
11,RRIRGRPPRLPRPRPRPKCCPRP,0.56
12,RRIRERPPRLPRPRPRPYGTPRP,-0.0949
13,RRIRGRPPRLPRPRPRPPWAPRP,0.769
14,RRIRSRPPRLPRPRPRPHWQPRP,-0.0893
15,RRIRTRPPRLPRPRPRPLLRPRP,0.0975
16,RRIRVRPPRLPRPRPRPYENPRP,-0.293
17,RRIRMRPPRLPRPRPRPNMFPRP,0.0213
18,RRIRNRPPRLPRPRPRPVPYPRP,0.0481
19,RRIRNRPPRLPRPRPRPFSQPRP,-0.021
20,RRIRHRPPRLPRPRPRPEENPRP,0.0237
21,RRIRGRPPRLPRPRPRPVAPPRP,1.18
22,RRIRVRPPRLPRPRPRPGWSPRP,0.434
23,RRIRLRPPRLPRPRPRPDWWPRP,0.0919
24,RRIRNRPPRLPRPRPRPNIEPRP,-0.027
25,RRIRGRPPRLPRPRPRPGYWPRP,1.88

row,Sequence,shrunken log2 fold change
1,RRIRTRPPRLPRPRPRPQIQPRP,-0.418
2,RRIRVRPPRLPRPRPRPFDQPRP,-0.365
3,RRIRVRPPRLPRPRPRPRRVPRP,0.256
4,RRIRYRPPRLPRPRPRPSQSPRP,-0.804
5,RRIRNRPPRLPRPRPRPQRYPRP,-0.602
6,RRIRARPPRLPRPRPRPIGSPRP,-0.0508
7,RRIRQRPPRLPRPRPRPGSAPRP,0.104
8,RRIRWRPPRLPRPRPRPFWPPRP,0.161
9,RRIRGRPPRLPRPRPRPSPPPRP,0.569
10,RRIRLRPPRLPRPRPRPMFYPRP,-0.361
11,RRIRHRPPRLPRPRPRPGLAPRP,0.366
12,RRIRSRPPRLPRPRPRPVGHPRP,-0.376
13,RRIRSRPPRLPRPRPRPPTIPRP,0.0521
14,RRIRCRPPRLPRPRPRPMHIPRP,-0.241
15,RRIRFRPPRLPRPRPRPMLVPRP,-0.0924
16,RRIRTRPPRLPRPRPRPPLSPRP,-0.0606
17,RRIRVRPPRLPRPRPRPAWTPRP,-0.0585
18,RRIRERPPRLPRPRPRPWNFPRP,-0.0838
19,RRIRLRPPRLPRPRPRPFLQPRP,-0.102
20,RRIRRRPPRLPRPRPRPPQHPRP,1.2
21,RRIRPRPPRLPRPRPRPFKNPRP,-0.615
22,RRIRARPPRLPRPRPRPKPFPRP,0.0753
23,RRIRSRPPRLPRPRPRPQRNPRP,0.104
24,RRIRDRPPRLPRPRPRPTYRPRP,-0.224
25,RRIRFRPPRLPRPRPRPIHQPRP,-0.237

# Reference: the supplement of paper PMC9112550, “Optimization of the antimicrobial peptide Bac7 by deep mutational scanning” (BMC Biology, 2022)
